From patent US20250027068

Biological target: pooled human IgG

Row | Protein | Enzyme Activity Endpoint Assay (purified): Fab'2 [ng/µL] | Enzyme Activity Endpoint Assay (purified): Fc [ng/µL] | Enzyme Activity Endpoint Assay (purified): IgG [ng/µL] | Enzyme Activity Endpoint Assay (purified): scIgG [ng/µL]
1 | PRT-143 (protein) MANQEIRYSEVTPYHITSVWTKGVTPPANFTQGEDVFHAPYVANQGWYDITKTFNGKDDLLCGAATAGNMLHWWFDQNKDQIKRYLEEHPEKQKINFNGEQMFDVKEAIDTKNHQLDSKLFEYFKEKAFPYLSTKHLGVFPDHVIDMFINGYRLSLTNHGPTPVKEGSKDPRGGIFDAVFTRGDQSKLLTSRHDFKEKTLNEISQLIKQELTEGKALGLSHTYANVRINHVINLWGADFDAEGNLEAIYVTDSDSNASIGMKKYFVGVNSAGKVAISAKEIKEDNIGAQVLGLFTLSTGQDSWNQTN | 576 | 170 | 0 | 0
2 | PRT-144 (protein) MANQEIRYSEVTPYHITSVWTKGVTPPANFTQGEDVFHAPYVANQGWYDITKTFNGKDDLLCGAATAGNMLHWWFDQNKDQIKRYLEEHPEKQKINFNGEQMFDVKEAIDTKNHQLDSKLFEYFKEKAFPYLSTKHLGVFPDHVIDMFINGYRLSLTNHGPTPVKEGSKDPRGGIFDAVFTRGDQSKLLTSRHDFKEKTLNDISQLIKQELQSGKALGLSHTYANVRINHVINLWGADFDAEGNLEAIYVTDSDSNASIGMKKYFVGKNSAGKVAISAKEIKEDNIGAQVLGLFTLSTGQDSWNQTN | 562 | 151 | 0 | 26
3 | PRT-140 (protein) MRNATEAYAKEVPHQITSVWTKGVTPLTPEQFRYNNEDVIHAPYLAHQGWYDITKAFNGKDNLLCGAATAGNMLHWWFDQNKTEIEAYLSKHPEKQKIIFNNQELFDLKAAIDTKDSQTNSQLFNYFRDKAFPNLSARQLGVMPDLVLDMFINGYYLNVFKTQSTDVNRPYQDKDKRGGIFDAVFTRGDQTTLLTARHDLKNKGLNDISTIIKQELTEGRALALSHTYANVSISHVINLWGADFNAEGNLEAIYVTDSDANASIGMKKYFVGINAHGHVAISAKKIEGENIGAQVLGLFTLSSGKDIWQKLS | 755 | 213 | 0 | 0
4 | PRT-141 (protein) MRNATEAYAKEVPHQITSVWTKGVTPLTPEQFRYNNEDVIHAPYLAHQGWYDITKAFDGKDNLLCGAATAGNMLHWWFDQNKTEIEAYLSKHPEKQKIIFNNQELFDLKAAIDTKDSQTNSQLFNYFRDKAFPNLSARQLGVMPDLVLDMFINGYYLNVFKTQSTDVNRPYQDKDKRGGIFDAVFTRGDQTTLLTARHDLKNKGLNDISTIIKQELTEGRALALSHTYANVSISHVINLWGADFNAEGNLEAIYVTDSDANASIGMKKYFVGINAAGHVAISAKKIEGENIGAQVLGLFTLSSGKDIWQKLS | 846 | 215 | 0 | 0
5 | PRT-142 (protein) MRNATEAYAKEVPHQITSVWTKGVTPLTPEQFRYNNEDVFHAPYLAHQGWYDITKAFDGKDNLLCGAATAGNMLHWWFDQNKTEIEAYLSKHPEKQKIIFNNQELFDLKAAIDTKDSQTNSQLFNYFRDKAFPNLSARQLGVMPDLVLDMFINGYYLNVFKTQSTDVNRPYQDKDKRGGIFDAVFTRGDQTTLLTARHDLKNKGLNDISTIIKQELTEGRALALSHTYANVSISHVINLWGADFNAEGNLEAIYVTDSDANASIGMKKYFVGINAHGHVAISAKKIEGENIGAQVLGLFTLSSGKDIWQKLS | 589 | 135 | 0 | 0
